Paper PMC3874396

Tests used:
[1] = target: RNC^EspP-Hydro-SRP complex (SRP with DACM-labeled Ffh(C235), loaded with RNC^EspP-Hydro) (Escherichia coli | not stated) (UniProt P0AGD7); test: FRET or BRET
[2] = target: RNC^EspP-SRP complex (SRP with DACM-labeled Ffh(C235), loaded with RNC^EspP) (Escherichia coli | not stated) (UniProt P0AGD7); test: FRET or BRET
[3] = target: SRP with fluorescein-labeled Ffh(C421) (Escherichia coli) (UniProt P0AGD7); test: […]

Substance	Kd [1]	kon [1]	Kd [2]	kon [2]	Kd [3]
BODIPY-FL (acceptor)-labeled FtsY(C487) (from UniProt P10121 1-497) (receptor)	0.3 µM	15200 M⁻¹ s⁻¹	0.311 µM	9200 M⁻¹ s⁻¹	
RNC^EspP (ribosome-nascent chain complex displaying the EspP signal sequence) (from UniProt Q7BSW5 56-88)					0.0136 µM
